Test results taken from PMC3929611 (2014).
One block for each binder: values may come before it. Primed or numbered codes have the meaning given here. Ends that are not written are not given here. FITC′ = fluorescein isothiocyanate

Columns and labels:
[1] = target: T1, FITC-labeled β2 peptide (rat, UniProt P63138); test: FP
T1 peptide: {FITC′}-MWRVRKRGYFGIWSFPLII

[2] = target: T2, FITC-labeled α1 peptide (rat); test: FP
T2 peptide: {FITC′}-QPSQDELKDNTTVFT

Kd [1]: 820 nM
B1: G8 scFv (anti-β2 subunit scFv), soluble protein (scFv, V domains shown)
VH: EVQLVQSGAEVKKPGATVKISCKVSGYTFTDYYMHWVQQAPGKGLEWMGLVDPEDGETIYAEKFQGRVTITADTSTDTAYMELSSLRSEDTAVYYCATTPPHDYYDSSGLDYWGQGTLVTVSS
VL: DIQMTQSPSSVSASVGDRVTITCRASQGINRWLAWYQQKPGKAPKLLIYAASNLQSGVPSRFSGSGSGTDFSLTISSLQPEDFATYYCQQSYSPPSTFGGGTKLEIK

Kd [2]: 3000 nM
B2: A10 scFv (anti-α1 subunit-specific scFv), soluble protein (scFv, V domains shown)
VH: EVQLVQSGAEVKKPGASVKVSCKASGYTFTSYYMHWVRQAPGQGLEWMGIINPSGGSTSYAQKFQGRVTMTRDTSTSTVYMELSSLRSEDTAVYYCARDGWGGSSFLDYWGQGTLVTVSS
VL: SYELTQPPSVSVSPGQTARITCSGDALPKKYAYWYQQKSGQAPVLVIYEDSKRPSGIPERFSGSSSGTMATLTISGAQVEDEADYYCYSKDNTGYQMVFGGGTKLTVL
